According to paper PMC12307502:

Molecular target: AβO (amyloid-beta oligomer) (UniProt P05067)
Experiment: fluorescence quenching titration (Cy5/BHQ3), LangmuirEXT1 fit
Settings: 25 °C; buffer not stated for the aptamer-only binding assays (AβO detection assay: 50 mM Tris-HCl pH 8, 10 mM MgCl2)

Sequence of UniProt P05067 (P05067 whole entry): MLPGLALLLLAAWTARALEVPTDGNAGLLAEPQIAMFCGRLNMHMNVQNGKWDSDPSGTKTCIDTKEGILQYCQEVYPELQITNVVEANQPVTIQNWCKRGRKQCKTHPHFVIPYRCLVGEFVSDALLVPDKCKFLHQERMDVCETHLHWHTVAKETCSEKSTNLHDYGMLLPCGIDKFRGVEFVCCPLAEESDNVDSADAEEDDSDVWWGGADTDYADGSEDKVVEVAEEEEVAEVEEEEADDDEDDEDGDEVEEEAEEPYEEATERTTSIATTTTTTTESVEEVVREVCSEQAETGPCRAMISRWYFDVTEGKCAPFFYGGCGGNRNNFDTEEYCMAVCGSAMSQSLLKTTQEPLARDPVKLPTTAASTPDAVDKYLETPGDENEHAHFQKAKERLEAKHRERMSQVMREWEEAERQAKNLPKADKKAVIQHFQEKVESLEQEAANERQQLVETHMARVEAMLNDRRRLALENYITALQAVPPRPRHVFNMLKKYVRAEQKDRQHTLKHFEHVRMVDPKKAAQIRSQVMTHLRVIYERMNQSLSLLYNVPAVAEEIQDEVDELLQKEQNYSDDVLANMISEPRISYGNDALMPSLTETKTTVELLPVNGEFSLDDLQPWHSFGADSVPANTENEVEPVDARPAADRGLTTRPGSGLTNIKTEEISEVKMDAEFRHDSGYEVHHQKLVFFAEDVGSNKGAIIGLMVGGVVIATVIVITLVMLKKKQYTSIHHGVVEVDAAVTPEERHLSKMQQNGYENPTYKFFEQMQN

## TGACCAACGCCTGTGGTGTTGGGGCGGGTGCGGTTGGTCA [A4]
  Kd: 7.54 nM
